Literature values in PMC10876095.
Read-outs that look alike come from different tables or passages of the source.

How the values were obtained:
[1] = target: tau (Homo sapiens) (UniProt P10636)
[2] = target: tau (Homo sapiens) (UniProt P10636); assay: SPR
[3] = target: tau (Homo sapiens) (UniProt P10636); assay: SPR; remark: listed apart in the source

Sequence of UniProt P10636 (P10636 2-758): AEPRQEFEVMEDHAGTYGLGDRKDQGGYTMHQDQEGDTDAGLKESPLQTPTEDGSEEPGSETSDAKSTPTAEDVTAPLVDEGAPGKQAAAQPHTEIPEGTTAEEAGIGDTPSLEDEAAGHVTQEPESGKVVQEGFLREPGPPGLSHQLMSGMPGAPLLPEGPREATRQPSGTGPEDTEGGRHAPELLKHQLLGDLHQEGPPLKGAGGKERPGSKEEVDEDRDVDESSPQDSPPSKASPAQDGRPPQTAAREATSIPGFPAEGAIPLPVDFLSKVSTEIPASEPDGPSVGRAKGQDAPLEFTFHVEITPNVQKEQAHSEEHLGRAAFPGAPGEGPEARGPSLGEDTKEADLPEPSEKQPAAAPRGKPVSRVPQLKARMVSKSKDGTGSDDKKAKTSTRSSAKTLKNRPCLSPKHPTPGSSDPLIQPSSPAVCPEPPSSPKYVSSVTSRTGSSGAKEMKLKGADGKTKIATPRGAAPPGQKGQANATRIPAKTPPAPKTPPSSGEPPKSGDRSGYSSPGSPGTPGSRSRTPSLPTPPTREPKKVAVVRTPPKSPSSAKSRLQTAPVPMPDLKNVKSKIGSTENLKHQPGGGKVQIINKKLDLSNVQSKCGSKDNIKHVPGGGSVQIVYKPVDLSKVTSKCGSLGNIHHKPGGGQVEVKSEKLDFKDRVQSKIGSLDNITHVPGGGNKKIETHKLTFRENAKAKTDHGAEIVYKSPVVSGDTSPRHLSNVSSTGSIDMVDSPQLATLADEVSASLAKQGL

Kd [1]: 900 nM
Kd [2]: 22 nM
Kd [3]: 312 nM
Substance: 14-3-3ζ (from UniProt P63104)
